Laboratory results taken from patent US20150329642A1 (Genmab, published 2015).
Positions count from the first letter of the chain named.

B1: anti-c-Met HuMab 098 (IgG1) (antibody, V domains shown)
VH: QVQLVQSGAEVKKPGASVKVSCKASGYTFTNFGISWVRQAPGQGLEWMGWISAFNGHTDYSQKVQGRVTMTTDTSTSTAYMELRSLRSDDTAVFYCARSHYYGSGSPFDYWGQGTLVTVSS
VL: DIQMTQSPSSLSASVGDRVTITCRASQGISNWLAWYQQKPEKAPKSLIYAASSLQSGVPSRFSGSGSGTDFTLTISSLQPEDFATYYCHQYKSYPWTFGQGTKVEIK
notes: also called TH1016-098; PC1016-098
B2: anti-c-Met HuMab 035 (IgG1) (antibody, V domains shown)
VH: EVQLVQSGAEVKKPGESLKISCKGSGYSFTSYWIGWVRQMPGKGLEWMGIIYPGDSDTRYSPSFQGQVTISADKSISTAYLQWNSLKASDTAMYYCARQEITGEFDYWGQGTLVTVSS
VL: AIQLTQSPSSLSASVGDRVTITCRASQGISSALAWYQQKPGKAPKLLIYDASSLESGVPSRFSGSGSGTDFTLTISSLQPEDFATYYCQQFNSYPMYTFGQGTKLEIK
notes: also called P1016-035; TH1016-035-D09
B3: anti-c-Met HuMab 045 (IgG1) (antibody, V domains shown)
VH: EVQLLESGGGLVQPGGSLRLSCAASGFTFSSYAMSWVRQAPGKGLEWVSVISGSGGITYYADSVKGRFTISRDNSKNTLYLQMNSLRAEDTAVYYCARDRGWGSDYWGQGTLVTVSS
VL: EIVLTQSPATLSLSPGERATLSCRASQSVSSYLAWYQQKPGQAPRLLIYDASNRATGIPARFSGSGSGTDFTLTISSLEPEDFAVYYCQQRSNWPFTFGPGTKVDIK
notes: also called TH1016-045; PC1016-045
B4: IgG1-1016-069 (antibody, V domains shown)
VH: QVQLVQSGAEVKKPGASVKVSCETSGYTFTSYGISWVRQAPGHGLEWMGWISAYNGYTNYAQKLQGRVTMTTDTSTSTAYMELRSLRSDDTAVYYCARDLRGTNYFDYWGQGTLVTVSS
VL: DIQMTQSPSSVSASVGDRVTITCRASQGISNWLAWFQHKPGKAPKLLIYAASSLLSGVPSRFSGSGSGTDFTLTISSLQPEDFATYYCQQANSFPITFGQGTRLEIK
notes: also called clone 069; TH1016-069
B5: anti-c-Met HuMab 181 (IgG1) (antibody, V domains shown)
VH: B4 VH with E23K, T24A, H43Q, A53T, N104A
VL: B4 VL with F36Y
notes: also called TH1016-181; PC1016-181

The binders below were run against T1, cMetECDHis (human, UniProt P08581 25-932, limits assumed, biotinylated in the cross-block ELISA of Example 17) (assay: cross-block ELISA; competitor 069).
T1 construct: Expressed in HEK-293F cells; also called soluble cMetECDHis; biotinylated cMetECDHis
Description: (§1) First, the optimal coating concentrations of the tested anti-c-Met antibodies and the optimal cMetECDHis concentration were determined. Therefore, ELISA wells were coated overnight at 4° C. with anti-c-Met HuMabs serially diluted in PBS (8 μg/mL in 2-fold dilutions). Next, the ELISA wells were washed with PBST (PBS supplemented with 0.05% Tween-20 [Sigma-Aldrich, Zwijndrecht, The Netherlands]) and blocked for one hour at room temperature (RT) with PBSTC (PBST supplemented 2% [v/v] chicken serum [Gibco, Paisley, Scotland]). Subsequently, the ELISA wells were washed with PBST and incubated for one hour at RT with biotinylated cMetECDHis serially diluted in PBSTC (1 μg/mL in 2-fold dilutions). Unbound biotinylated cMetECDHis was washed away with PBST, and bound biotinylated cMetECDHis was incubated for one hour at RT with 0.1 μg/mL Streptavidin-poly-HRP (Sanquin, Amsterdam, The Netherlands) diluted in PBST.
(§2) ELISA wells were coated with anti-c-Met antibody at a sub-optimal dose as described above. After blocking of the ELISA wells, they were incubated with the predetermined concentration of biotinylated cMetECDHis in the presence of an excess of anti-c-Met antibody. The reaction was developed as described above. Residual binding was expressed as a percentage relative to the binding observed in the absence of competitor antibody.

| residual binding, % of no competitor [%] | Binder |
| --- | --- |
| 3.4 | B1 |
| 151 | B2 |
| 97 | B3 |
| 2.4 | B4 |
| 2.2 | B5 |

What follows are binders tested against T1, cMetECDHis (assay: cross-block ELISA; competitor 098).
Description: as §1, §2

| residual binding, % of no competitor [%] | Binder |
| --- | --- |
| 2.6 | B1 |
| 126 | B2 |
| 76.4 | B3 |
| 12.5 | B4 |
| 5.1 | B5 |

What follows are binders tested against T1, cMetECDHis (assay: cross-block ELISA; competitor 181).
Description: as §1, §2

| residual binding, % of no competitor [%] | Binder |
| --- | --- |
| 12 | B1 |
| 159 | B2 |
| 99.4 | B3 |
| 6.3 | B4 |
| 3.6 | B5 |

These binders were tested against T1, cMetECDHis (assay: cross-block ELISA; competitor 005).
Description: as §1, §2

| residual binding, % of no competitor [%] | Binder |
| --- | --- |
| 99.6 | B1 |
| 36.7 | B2 |
| 111 | B3 |
| 102 | B4 |
| 95.9 | B5 |

Each binder was assayed against T1, cMetECDHis (assay: BLI (Octet); antibody captured, cMetECDHis in solution).
Description: Antibody binding to cMetECDHis was analyzed by means of Bio-Layer Interferometry (BLI) technology on the Octet System (Fortebio, Menlo Park, USA). Anti-human IgG coated biosensors (Fc-specific) were used to capture anti-c-Met antibodies according to the procedure recommended by the manufacturer. cMetECDHis derived from HEK293 cells was loaded on top of the immobilized anti-c-Met antibodies by placing the loaded biosensor into a well containing 10 μg/mL cMetECDHis diluted in 10 times diluted kinetics buffer (Fortebio). The difference in reflection of light (AA, nm) of the biosensor surface due to the binding of cMetECDHis was measured in real time during approximately 10 minutes and was used by the Octet software (V4.0, Fortebio) to calculate the association constant (kₐ [1/M×s]). Next, the loaded biosensor was placed into a well containing only kinetics buffer (10 times diluted in PBS) to determine the dissociation constant (kd [1/s]). Kinetics analysis was performed to determine the affinity (KD [M]) using model 1:1 (langmuir). As a positive control, 0.2 μg/mL 5D5 IgG1 produced in HEK293 cells, was used.

| Kd [nM] | koff [s⁻¹] | kon [M⁻¹ s⁻¹] | Binder |
| --- | --- | --- | --- |
| 1.82 | 0.000297 | 164000 | B1 |
| 13.9 | 0.00368 | 264000 | B2 |
| 2.87 | 0.00207 | 721000 | B3 |
| 1.26 | 0.000267 | 212000 | B4 |
| 2.23 | 0.000531 | 237000 | B5 |

What follows are binders tested against T1, cMetECDHis (assay: cross-block ELISA; competitor 022).
Description: as §1, §2

| residual binding, % of no competitor [%] | Binder |
| --- | --- |
| 95.8 | B1 |
| 54.6 | B2 |
| 105 | B3 |
| 97.8 | B4 |
| 92.5 | B5 |

What follows are binders tested against T1, cMetECDHis (assay: cross-block ELISA; competitor 062).
Description: as §1, §2

| residual binding, % of no competitor [%] | Binder |
| --- | --- |
| 8.8 | B1 |
| 120 | B2 |
| 103 | B3 |
| 2.2 | B4 |
| 2 | B5 |

Each binder was assayed against T1, cMetECDHis (assay: cross-block ELISA; competitor 5D5).
Description: as §1, §2

| residual binding, % of no competitor [%] | Binder |
| --- | --- |
| 94.9 | B1 |
| 25.5 | B2 |
| 27.8 | B3 |
| 99.4 | B4 |
| 94.2 | B5 |

The binders below were run against T1, cMetECDHis (assay: cross-block ELISA; competitor 045).
Description: as §1, §2

| residual binding, % of no competitor [%] | Binder |
| --- | --- |
| 96.7 | B1 |
| 125 | B2 |
| 21.3 | B3 |
| 99.8 | B4 |
| 96.8 | B5 |

Each binder was assayed against T1, cMetECDHis (assay: cross-block ELISA; competitor 101).
Description: as §1, §2

| residual binding, % of no competitor [%] | Binder |
| --- | --- |
| 4 | B1 |
| 113 | B2 |
| 102 | B3 |
| 3.9 | B4 |
| 2.4 | B5 |

Each binder was assayed against T1, cMetECDHis (assay: cross-block ELISA; competitor 068).
Description: as §1, §2

| residual binding, % of no competitor [%] | Binder |
| --- | --- |
| 18 | B1 |
| 175 | B2 |
| 113 | B3 |
| 10.1 | B4 |
| 6.5 | B5 |

The binders below were run against T1, cMetECDHis (assay: cross-block ELISA; competitor 064).
Description: as §1, §2

| residual binding, % of no competitor [%] | Binder |
| --- | --- |
| 9.3 | B1 |
| 132 | B2 |
| 104 | B3 |
| 2.3 | B4 |
| 2.1 | B5 |

These binders were tested against T1, cMetECDHis (assay: cross-block ELISA; competitor 006).
Description: as §1, §2

| residual binding, % of no competitor [%] | Binder |
| --- | --- |
| 97.9 | B1 |
| 33 | B2 |
| 111 | B3 |
| 100 | B4 |
| 93.7 | B5 |

The binders below were run against T1, cMetECDHis (assay: cross-block ELISA; competitor 008).
Description: as §1, §2

| residual binding, % of no competitor [%] | Binder |
| --- | --- |
| 99.8 | B1 |
| 7.2 | B2 |
| 98.5 | B3 |
| 102 | B4 |
| 98.7 | B5 |

These binders were tested against T1, cMetECDHis (assay: cross-block ELISA; competitor G11-HZ).
Description: as §1, §2

| residual binding, % of no competitor [%] | Binder |
| --- | --- |
| 99.6 | B1 |
| 7.8 | B2 |
| 99.3 | B3 |
| 110 | B4 |
| 98.7 | B5 |

Each binder was assayed against T1, cMetECDHis (assay: cross-block ELISA; competitor 058).
Description: as §1, §2

| residual binding, % of no competitor [%] | Binder |
| --- | --- |
| 98.6 | B1 |
| 18.5 | B2 |
| 115 | B3 |
| 101 | B4 |
| 98.9 | B5 |

What follows are binders tested against T1, cMetECDHis (assay: cross-block ELISA; competitor 035).
Description: as §1, §2

| residual binding, % of no competitor [%] | Binder |
| --- | --- |
| 89.4 | B1 |
| 10.6 | B2 |
| 105 | B3 |
| 91.7 | B4 |
| 96 | B5 |
